Reference: patent US20230416356A1 (SCOUT BIO, published 2023)

Assays:
[1] = molecular target: T1, human IL-31 (human, UniProt Q6EBC2 24-164); assay: ELISA, antigen coated
T1 construct: also called hIL-31
T1 sequence (looked up): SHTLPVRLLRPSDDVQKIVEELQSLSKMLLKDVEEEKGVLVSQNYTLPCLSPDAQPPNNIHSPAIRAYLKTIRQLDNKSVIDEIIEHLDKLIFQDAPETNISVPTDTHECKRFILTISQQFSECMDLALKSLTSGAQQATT

[2] = molecular target: T2, Canine IL-31_4xMUT_combo (SEQ ID NO: 74) (canine); assay: ELISA, protein coated (100 ng/well)
T2 construct: See note of m25; the entry already carries the substitutions, the leader and the His tag; also called all 4 residues (L29, Y32, Q33, and P40) substituted for alanine in combination
T2 chain: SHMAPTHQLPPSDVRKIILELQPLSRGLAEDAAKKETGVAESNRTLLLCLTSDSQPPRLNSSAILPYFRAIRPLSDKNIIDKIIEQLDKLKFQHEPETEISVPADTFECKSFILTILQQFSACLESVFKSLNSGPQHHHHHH
Procedure: (§1) Binding to the various IL-31 proteins and peptides was assessed by ELISA. IL-31 proteins or peptides (100 ng/well) were immobilized to polystyrene microplates as capture antigen. Wells were blocked with PBS/0.05% Tween 20/1% BSA. Coated wells were incubated for 1 h at room temperature with anti-IL-31 mAbs diluted in PBS/0.05% Tween 20/1% BSA (100 μl/well). After washing, the plates were incubated with a 1/10,000 dilution […] Rabbit Anti-Dog IgG (whole molecule) (Sigma) in PBS/0.05% Tween 20/1% BSA. Plates were washed with PBS/0.05% Tween 20 and developed by the addition of TMB substrate. Development was stopped by the addition of 100 ul ELISA stop Solution (Invitrogen) and absorbance of each well was determined at an optical density (OD) of 450 nm.
Confirmation of the unique epitope targeted by RA4 mAb was performed by assessing the binding of RA4 mAb to full length canine IL-31 proteins that contained each of the 4 key residues identified above, substituted for alanine, and a version with all 4 residues substituted for alanine in combination. […] Binding of RA4 mAb and M14 mAb to each of the proteins was determined by ELISA, as detailed above. […] When all 4 residues (L29, Y32, Q33, and P40) were substituted for alanine in combination, no binding to canine IL-31 was detected. […]

[3] = molecular target: T3, canine IL-31 alanine-scanning peptide (residues 18-42 of SEQ ID NO:1) S42A (canine); assay: ELISA on alanine-scanning peptides, normalised to the first peptide of the series
T3 construct: See note of m18; also called S42A peptide
T3 peptide: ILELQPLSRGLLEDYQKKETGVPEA
Procedure: as §1
(§2) An alanine-scanning peptide library of the region encompassing amino acid residues 18-42 of SEQ ID NO:1 was generated ([…]; SEQ ID NO:79), consisting of 25 peptides, each with a single alanine mutation at a different residue. Binding of the RA4 mAb to each of the peptides was determined by ELISA, as detailed above.

[4] = molecular target: T4, canine IL-31 alanine-scanning peptide (residues 18-42 of SEQ ID NO:1) L29A (canine); assay: as above
T4 construct: also called L29A peptide
T4 peptide: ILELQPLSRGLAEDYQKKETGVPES
Procedure: as §1, §2

[5] = molecular target: T5, canine IL-31 alanine-scanning peptide (residues 18-42 of SEQ ID NO:1) Y32A (canine); assay: as above
T5 construct: See note of m18; also called Y32A peptide
T5 peptide: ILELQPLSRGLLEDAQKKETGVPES
Procedure: as §1, §2

[6] = molecular target: T6, canine IL-31 alanine-scanning peptide (residues 18-42 of SEQ ID NO:1) V39A (canine); assay: as above
T6 construct: See note of m18; also called V39A peptide
T6 peptide: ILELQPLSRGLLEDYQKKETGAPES
Procedure: as §1, §2

[7] = molecular target: T7, canine IL-31 alanine-scanning peptide (residues 18-42 of SEQ ID NO:1) K35A (canine); assay: as above
T7 construct: See note of m18; also called K35A peptide
T7 peptide: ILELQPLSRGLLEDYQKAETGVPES
Procedure: as §1, §2

[8] = molecular target: T8, canine IL-31 alanine-scanning peptide (residues 18-42 of SEQ ID NO:1) Q33A (canine); assay: as above
T8 construct: See note of m18; also called Q33A peptide
T8 peptide: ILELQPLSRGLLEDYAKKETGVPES
Procedure: as §1, §2

[9] = molecular target: T9, canine IL-31 alanine-scanning peptide (residues 18-42 of SEQ ID NO:1) P40A (canine); assay: as above
T9 construct: See note of m18; also called P40A peptide
T9 peptide: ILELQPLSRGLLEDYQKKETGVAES
Procedure: as §1, §2

[10] = molecular target: T10, Recombinant canine IL-31 (ProSpec-Tany); amino acid residues 24-159 of Accession no. NP_001159386; SEQ ID … (canine); assay: cell-based or functional assay
T10 chain: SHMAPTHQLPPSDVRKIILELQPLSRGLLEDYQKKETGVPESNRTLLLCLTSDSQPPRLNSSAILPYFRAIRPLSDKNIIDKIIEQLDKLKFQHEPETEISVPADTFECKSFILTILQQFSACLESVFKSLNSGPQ

[11] = molecular target: T10, Recombinant canine IL-31 (ProSpec-Tany; …); assay: hybridoma screen, microarray ELISA format

B1: chimeric monoclonal antibody RA4 (chRA4) (antibody, V domains shown)
VH: QIQLVQSGPELKKPGETVKISCKASGYTFTDYSMHWVKQAPGKGLRWMGWINTETGKTIHAEDFKGRVAFSLETSASTAYLQINNLKNEDTATYFCASGRPDYWGQGTTLTVSS
VL: DIVLSQSPASLAVSLGQRATISCRASESVEYYGTSLMQWYQQKPGQPPKLLIYAASGVESGVPARFSGSGSGTDFSLIIHPVEEDDIAMYFCQQSRKVPYTFGGGTKLEIKR
notes: also called chimeric RA4; chimeric RA4.D2 antibody
binding result [1]: no binding
binding result [2]: no binding
binding as a percentage of binding to the first peptide in the series [3]: < 50%
binding as a percentage of binding to the first peptide in the series [4]: < 15%
binding as a percentage of binding to the first peptide in the series [5]: < 15%
binding as a percentage of binding to the first peptide in the series [6]: < 50%
binding as a percentage of binding to the first peptide in the series [7]: < 50%
binding as a percentage of binding to the first peptide in the series [8]: < 15%
binding as a percentage of binding to the first peptide in the series [9]: < 15%
inhibition of canine IL-31-induced STAT-3 phosphorylation in canine DH82 cells (IC50) [10]: 1.5 µg/mL

B2: murine monoclonal antibody RA4.D2 (antibody, V domains shown)
VH: B1 VH
VL: B1 VL
notes: Mouse hybridoma antibody with a kappa light chain; also called murine RA4
binding result [11]: binds
